Target: the molecule itself
Test: SEC; native molecular weight of purified EnoCa (~92-96 kDa against a ~46 kDa subunit on SDS gel); gel filtration on Sephacryl S-300 (2.5 x 100 cm), 1 ml/min, is a step of the purification; the data are in Figures S1-S3

B1: enolase-1 from Chloroflexus aurantiacus (enzyme, Chloroflexus aurantiacus strain J.10.fl., UniProt A9WCM4 1-426, looked up)
chain: MSTLIEAIVAREVLDSRGNPTIEVDVRLESGDVGRAIVPSGASTGAHEALELRDGDKSRYNGKGVLKAVQAVNEDIAEALIGFDAADQIALDQELIALDGTPNKSKLGANAILGVSLAAAKAAAAAFGLPLYRYLGGVYAHVLPVPMMNIMNGGQHATNSTDFQEFMIMPVGAESFREGLRWGAEIYHMLKKVIHDRGFSTTVGDEGGFAPSLPTNDAPLQLIMEAIEKAGYRPGEQIVIALDPATTEIFEDGKYHLKREGRSLSSAEMVDYWVDLVNRYPIISLEDGLAEDDWEGWALLRAKLGDRVQLVGDDFLVTNVQRLQRAIEAKAANSILIKLNQIGSLTETLSAIQLAQRSGWTAVVSHRSGESEDVTIADLVVATNAGQIKTGAPARTDRIAKYNQLLRIEEELGSAARYAGRSAFKV
notes: enolase-1 (2-phospho-D-glycerate hydrolyase, EC 4.2.1.11) of Chloroflexus aurantiacus strain J.10.fl., endogenous protein; subunit ~46 kDa by SDS-PAGE; Native protein purified from the organism, no tags; also called EnoCa; EnoCa-1
- stoichiometry N: 2

Source: article PMC4450660, “Biochemical and Structural Characterization of Enolase from Chloroflexus aurantiacus: Evidence for a Thermophilic Origin” (Frontiers in Bioengineering and Biotechnology, 2015)
